According to patent US20250333523A1 (Alector, published 2025):
Several values for one entry are separate records, joined by “and”; a condition that tells them apart may be missing. Identical values can stand only once. Like-named read-outs stand apart in the source and are kept apart here.

T1: Avi/His-HuIL18BPa (recombinant human IL-18BP isoform A with Avi and poly-His tags) (human, biotinylated with BirA on the Avi tag in some assays)
T1 construct: also called human IL-18BP-Avi-His
T1 chain: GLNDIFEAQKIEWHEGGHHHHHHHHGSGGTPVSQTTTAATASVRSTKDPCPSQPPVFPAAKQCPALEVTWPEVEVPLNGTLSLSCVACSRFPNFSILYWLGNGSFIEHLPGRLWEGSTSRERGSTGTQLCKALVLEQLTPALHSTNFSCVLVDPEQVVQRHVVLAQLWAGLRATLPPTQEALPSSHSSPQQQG

T2: Avi/HisMsIL18BPd (recombinant mouse IL-18BP with Avi and poly-His tags) (mouse, biotinylated with BirA on the Avi tag in some assays)
T2 chain: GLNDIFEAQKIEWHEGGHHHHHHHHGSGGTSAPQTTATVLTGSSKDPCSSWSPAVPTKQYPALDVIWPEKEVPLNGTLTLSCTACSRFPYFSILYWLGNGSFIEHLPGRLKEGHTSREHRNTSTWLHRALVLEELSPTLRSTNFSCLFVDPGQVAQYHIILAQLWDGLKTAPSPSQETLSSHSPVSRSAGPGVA

T3: His/Avi-CynoIL18BP (recombinant cynomolgus IL-18BP with His and Avi tags) (cynomolgus monkey)
T3 construct: also called cynomolgus IL-18BP-Avi-His
T3 chain: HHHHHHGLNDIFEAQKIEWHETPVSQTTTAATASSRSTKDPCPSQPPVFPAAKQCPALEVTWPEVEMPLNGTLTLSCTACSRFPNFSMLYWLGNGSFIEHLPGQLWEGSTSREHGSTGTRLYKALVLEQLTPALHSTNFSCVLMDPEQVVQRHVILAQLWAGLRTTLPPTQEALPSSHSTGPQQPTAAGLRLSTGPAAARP

T4: mouse IL-18BPd-human IgG Fc (R&D Systems, Cat. #122-BP-100) (mouse; human, UniProt Q9Z0M9 29-193)
T4 construct: Bought; also called mouse IL-18BPd-Fc Chimera
T4 sequence (looked up): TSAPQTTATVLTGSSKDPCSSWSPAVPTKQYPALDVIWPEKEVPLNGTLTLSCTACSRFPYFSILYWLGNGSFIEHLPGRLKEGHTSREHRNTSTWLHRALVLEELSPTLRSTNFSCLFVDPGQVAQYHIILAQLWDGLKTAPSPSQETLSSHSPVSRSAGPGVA

B1: anti-IL18BP antibody BP-02 (antibody, human IgG1, V domains shown)
VH: EVQLQQSGPELVKPGASVKIPCKASGYTFTDYNMDWVKQSHGKSLEWIGNINTNNGGTVYNQKFKGKATLTVDKSSSTAYMELRSLTSEDTAVYYCARSDTTVVASRYYAMDYWGQGTSVTVSL
VL: DIVLTQSPASLAMSLGKRATISCRASESVSIIATNLIHWYQQKPGQPPKLLIYHASNLETGVPARFSGSGSRTDFTLTIDPVEKDDVAIYYCLQSRKIPPTFGGGTKLEIK
B2: anti-IL18BP antibody BP-05 (antibody, human IgG1, V domains shown)
VH: EVQLQQSGPELVKPGASVKIPCKASGYTFTDYNMDWVKQSHGKSLEWIGNINTNNGGTVYNQKFKDKATLTVDKSSSTAYMELRSLTSEDTAVYYCARSDTTVVASRYYALDYWGQGTSVTVSS
VL: DIVLTQSPASLAMSLGKRATISCRASESVSIIGTDLIHWYQQKPGQPPKLLIYHASNLETGVPARFSGSGSRTDFTLTIDPVEEDDVAIYYCLQSRKIPPTFGGGTKLEIK
B3: anti-IL18BP antibody BP-04 (antibody, V domains shown)
VH: HVHLHQSGAELVRPGVSVKISCRGSGYTFTDYDVHWVKQSHAKSLEWIGVISTYYGDVGYNQEFKGKATMTLDKSSSTSYLELARLTSEDSAIYYCARSGTYYYGTRESHALDYWGQGTSVTVSS
VL: DIQMTQSPASLSVSVGETVTITCRTSDNVYSNLAWYQQKQGKSPQLLVYGAINLADGVPSRFSGSGSDTQYSLKINNLQSEDFGSYYCQHFWGNPYTFGGGTKLEIK
notes: also called BP-04 (hybridoma); BP-04 (parental)
B4: anti-IL18BP antibody BP-11 (antibody, human IgG1, V domains shown)
VH: QVQLQQSGAELAKPGASVKMSCKASGYTFTNYWMHWVKQRPGQGLEWIGHIDPSTGYTEYNQKFKDKATLTADKSSSTAYMQLSSLTSEDSAVYYCARGLGGLFGYWGQGTLVTVSA
VL: DIQMTQSPSSLSASLGGKVTITCKASQDINKFIAWYQHKPGKGPRLLIHHTSTLMPGIPSRFSGSGSGREYSFSISNLEPEDIATYYCLQYDNLLWTFGGGTKLEIR
B5: anti-IL18BP antibody BP-15 (antibody, human IgG1, V domains shown)
VH: QVQLVQSGAEVKKPGASVKVSCKASGYTFTTYDINWVRQAPGQGLEWMGIINPSGGSTSYAQKFQGRVTMTRDTSTSTVYMELSSLRSEDTAVYYCATGIGELDFDYWGQGTLVTVSS
VL: DIQMTQSPSSLSASVGDRVTITCRASQSISSYLNWYQQKPGKAPKLLIYKASTLHNGVPSRFSGSGSGTDFTLTISNLQPEDFATYYCQQAISFPLTFGGGTKVEIK
B6: anti-IL18BP antibody BP-16 (antibody, human IgG1, V domains shown)
VH: QVQLVQSGAEVKKPGASVKVSCKASGYTFTTYDINWVRQAPGQGLEWMGIIGSYGGATSYAQKFQGRVTMTRDTSTSTVYMELSSLRSEDTAVYYCATAEEELRFDYWGQGTLVTVSS
VL: DIQMTQSPSSLSASVGDRVTITCRASQSISSYLNWYQQKPGKAPKLLIYKASTLHNGVPSRFSGSGSGTDFTLTISNLQPEDFATYYCQQAISFPLTFGGGTKVEIK

Assays:
[1] = target: T1, Avi/His-HuIL18BPa (recombinant human …); experiment: SPR Carterra LSA, IgG immobilized
[2] = target: T2, Avi/HisMsIL18BPd (recombinant mouse …); experiment: cell-based or functional assay
[3] = target: T1, Avi/His-HuIL18BPa (recombinant human …); experiment: cell-based or functional assay
[4] = target: T3, His/Avi-CynoIL18BP (recombinant …); experiment: ELISA, coated IL-18BP
[5] = target: T2, Avi/HisMsIL18BPd (recombinant mouse …); experiment: ELISA, coated IL-18BP
[6] = target: T1, Avi/His-HuIL18BPa (recombinant human …); experiment: ELISA, coated IL-18BP
[7] = target: T3, His/Avi-CynoIL18BP (recombinant …); experiment: blocking ELISA, competitor rhesus IL-18
[8] = target: T1, Avi/His-HuIL18BPa (recombinant human …); experiment: blocking ELISA, competitor human IL-18
[9] = target: T3, His/Avi-CynoIL18BP (recombinant …); experiment: cell-based or functional assay
[10] = target: T3, His/Avi-CynoIL18BP (recombinant …); experiment: SPR Carterra LSA, IgG immobilized; WB = weak binding with KD > 1 µM
[11] = target: T4, mouse IL-18BPd-human IgG Fc (R&D …); experiment: blocking ELISA, competitor mouse IL-18
[12] = target: T3, His/Avi-CynoIL18BP (recombinant …); experiment: SPR Carterra LSA, IgG immobilized
[13] = target: T3, His/Avi-CynoIL18BP (recombinant …); experiment: SPR Biacore T200, IgG captured on Protein A/G
[14] = target: T1, Avi/His-HuIL18BPa (recombinant human …); experiment: SPR Biacore T200, IgG captured on Protein A/G
[15] = target: T2, Avi/HisMsIL18BPd (recombinant mouse …); experiment: cell-based or functional assay
[16] = target: T1, Avi/His-HuIL18BPa (recombinant human …); experiment: cell-based or functional assay
[17] = target: T3, His/Avi-CynoIL18BP (recombinant …); experiment: SPR Biacore T200, IgG captured on Protein A/G
[18] = target: T1, Avi/His-HuIL18BPa (recombinant human …); experiment: SPR Biacore T200, IgG captured on Protein A/G

| Binder | Kd [1] [nM] | EC50 of IFNγ release, mouse splenocytes [2] [nM] | Fold change of IFNγ at 10 µg/ml vs baseline, mouse splenocytes [2] [fold] | EC50 of IFNγ release, human PBMC [3] [nM] | Fold change of IFNγ at 10 µg/ml vs baseline, human PBMC [3] [fold] | ELISA binding ratio (fold-change over background) [4] [fold over background] | ELISA binding ratio (fold-change over background) [5] [fold over background] | ELISA binding ratio (fold-change over background) [6] [fold over background] | blocking ELISA signal normalized to isotype control (=1) [7] | blocking ELISA signal normalized to isotype control (=1) [8] | % of Max Gamma, human NK cells [9] [%] | EC50 of IFNγ release, human NK cells [9] [nM] | Kd [10] [nM] | blocking ELISA signal normalized to isotype control (=1) [11] | Kd [17] [nM] | Kd [18] [nM] | other results |
| --- | --- | --- | --- | --- | --- | --- | --- | --- | --- | --- | --- | --- | --- | --- | --- | --- | --- |
| B1 | 1.6 | 4.3 | 9.34 | 0.75 | 16.7 | 29.7 | 39.2 | 35.1 | 0.973 ratio to isotype control | 0.167 ratio to isotype control | 10.4 | 1.99 | > 1000 | 0.132 ratio to isotype control | – | – | – |
| B2 | 1.67 | 2.94 | 3.15 | 1.33 | 16.4 | 9.7 | 32.1 | 38.3 | 0.989 ratio to isotype control | 0.191 ratio to isotype control | – | – | > 1000 | 0.138 ratio to isotype control | – | – | – |
| B3 | 0.8 | 4.29 | 2.74 | 0.67 | 19 | 45.2 | 39.1 | 39.7 | 0.943 ratio to isotype control | 0.165 ratio to isotype control | 25.9 | 2.41 | – | 0.122 ratio to isotype control | – | – | Kd [12]: 3 nM; Kd [13]: 7.3 nM and 8.5 nM; koff [13]: 0.0032 s⁻¹ and 0.0033 s⁻¹; kon [13]: 440000 M⁻¹ s⁻¹ and 390000 M⁻¹ s⁻¹; Kd [14]: 1 nM and 1.1 nM; koff [14]: 0.00059 s⁻¹ and 0.00062 s⁻¹; kon [14]: 580000 M⁻¹ s⁻¹; EC50 of IFNγ release, mouse splenocytes [15]: 14.9 nM; EC50 of IFNγ release, human PBMCs [16]: 15.7 nM |
| B4 | – | 7 | 2.75 | 4.25 | 9.72 | 47.6 | 43.6 | 44.4 | 0.49 ratio to isotype control | 0.089 ratio to isotype control | 100 | 37.1 | – | 0.14 ratio to isotype control | 1 | 2.9 | – |
| B5 | 18.8 | 5.85 | 7.94 | 100 | 36 | 34.5 | 30.1 | 32.7 | – | – | 10 | 0.000106 | > 1000 | 0.211 ratio to isotype control | – | – | – |
| B6 | – | 3.08 | 11.9 | 1.66 | 238 | 25.1 | 22.1 | 23.6 | – | – | 51.6 | 8.4 | – | – | 11.8 | < 0.003 | – |
